Test system: Swiss albino male mice
Format: in vivo
Conditions: mouse, in vivo, 2.5 mg/kg
Source text: Swiss albino male mice (˜20 g) were used for the in vivo toxicity study. Male Sprague-Dawley (SD) rats were used for electrocardiogram (ECG) monitoring (3-4 weeks old, ˜80-100 g) and the Langendorff isolated perfused heart experiments (8 weeks old, ˜250 g). Animals were acquired from the university Laboratory Animal Center (LAC) and were acclimatized to the Animal Holding Unit surroundings for at least 3 days prior to the experiments. Animals were kept under standard conditions with food and water available ad lib. All animal experiments were conducted according to the protocol (776/05a) approved by the Institutional Animal Care and Use Committee (IACUC) of the National University of Singapore.
The protein was dissolved in 200 μl of 0.9% NaCl (Braun, Malaysia) and administered through the intra-peritoneal (i.p.) route for the in vivo toxicity study in mice. Intra-tail vein (i.t.v.) administration was done in the ECG monitoring study in rats. The various protein doses were dissolved in 200 μl of 0.9% NaCl solution and injected into the tail vein using a 27 G ½ needle (Becton Dickinson, Franklin Lakes, N.J.) held at an angle of about 10° to the tail. […]
After purification of the protein from snake venom, i.p. doses of 1 mg/kg, 10 mg/kg and 100 mg/kg were administered to healthy male mice (three animals per group) and the symptoms were observed and recorded. […]

Substance: α-bungarotoxin [reference compound]
- symptoms: severe paralysis of the hind limbs

From patent US20100062980A1, “THERAPEUTIC USES OF BETA-ANTAGONISTS” (priority 2006, published 2010)
